# B1: Biot-Nat (structured_DNA)
# DNA: TAGGGTTAGGGTTAGGGTTAGGG
# B2: Biot-Poly dT (ssDNA)
# DNA: TTTTTTTTTTTTTTTTTTTTTTT
# Experiments:
# NPM1 = NPM1 (UniProt P06748 1-294); experiment: SPR
# Ape1WT = Ape1WT (Homo sapiens, UniProt P27695 1-318); experiment: SPR
# Ape1WT, sequence (P27695 whole entry): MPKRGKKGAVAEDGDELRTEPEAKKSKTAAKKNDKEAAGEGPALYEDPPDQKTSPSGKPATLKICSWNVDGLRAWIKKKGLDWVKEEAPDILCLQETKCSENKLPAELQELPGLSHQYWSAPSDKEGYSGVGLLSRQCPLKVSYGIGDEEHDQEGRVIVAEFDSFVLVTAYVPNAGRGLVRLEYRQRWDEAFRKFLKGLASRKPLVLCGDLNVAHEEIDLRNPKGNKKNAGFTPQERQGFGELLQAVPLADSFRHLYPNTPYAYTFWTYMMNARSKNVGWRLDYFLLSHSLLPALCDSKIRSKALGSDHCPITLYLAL
# NPM1, sequence (P06748 whole entry): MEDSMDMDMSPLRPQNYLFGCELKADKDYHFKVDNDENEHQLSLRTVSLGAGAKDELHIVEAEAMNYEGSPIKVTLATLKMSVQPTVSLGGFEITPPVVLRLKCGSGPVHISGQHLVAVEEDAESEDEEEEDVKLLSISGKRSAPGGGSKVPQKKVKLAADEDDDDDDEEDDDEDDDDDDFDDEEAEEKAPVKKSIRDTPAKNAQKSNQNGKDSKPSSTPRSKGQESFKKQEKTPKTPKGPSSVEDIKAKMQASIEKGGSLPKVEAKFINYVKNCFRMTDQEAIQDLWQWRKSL
binder,measurement,setting,value
B1,Kd,NPM1,147 nM
same,Kd,Ape1WT,31.6 nM
B2,Kd,NPM1,255 nM
same,Kd,Ape1WT,170 nM

# — PMC6420783
